Positions count from the first letter of the chain named. Names and notes keep the numbering of the source. Blank lines part the entries; values can stand above or below the binder they belong to. *: point of attachment. COSH = C-terminal thiocarboxylate, S*
Key:
native MS = target: the molecule itself; assay: native MS
[1] = target: MtYcaO (YcaO from Methanothermobacter sp. CaT2), MBP-His tag cut in the assay mixture (Methanothermobacter sp. CaT2); assay: fluorescence polarisation

EC50 [1]: > 30 µM
B6: MtTfuA-D54A (enzyme)
chain: MHGKKIIIFTGPSLSHTEASSILEAEYRPPVRRGDIQEAMKENPDIIGIIAGVFHQSPAVGHREIIDAIRRGVKVVGGASMGALRASELSDLGMVGVGRIFRSYLEGEIESDDDVAVAFNPETLEPLSDSLVSIEFNLKRALRRGVIREDDFRKLMNTARNLFYPLRNYRRILHESGIPDDVKESLRSFLESEGRDLKREDALEVIRHIKRLAYTE

EC50 [1]: > 30 µM
B9: MtTfuA-H65A (enzyme)
chain: B6 chain with A51D, H62A

EC50 [1]: > 30 µM
B10: MtTfuA-V118A (enzyme)
chain: B6 chain with A51D, V115A

EC50 [1]: > 30 µM
B12: MtTfuA-D115A (enzyme)
chain: B6 chain with A51D, D112A

EC50 [1]: > 30 µM
B13: MtTfuA-L87A (enzyme)
chain: B6 chain with A51D, L84A

EC50 [1]: > 30 µM
B14: MtTfuA-Y107A (enzyme)
chain: B6 chain with A51D, Y104A

EC50 [1]: 3.9 µM
B19: MtTfuA-D208N (enzyme)
chain: B6 chain with A51D, D201N

Further lines, the binder ahead of its results:

B1: MtThiS-COSH (thiocarboxylated ThiS from Methanothermobacter sp. CaT2) (natural protein)
chain: MVIGMKFTVITDDGKKILESGAPRRIKDVLGELEIPIETVVVKKNGEIVIEEEEIFDGDIIEVIRVIYGG-{COSH}
stoichiometry N (native MS): 2

B2: MtTfuA-E67A (enzyme)
chain: B6 chain with A51D, E64A
EC50 [1]: 4.9 µM

B3: MtTfuA-E91Q (enzyme)
chain: B6 chain with A51D, E88Q
EC50 [1]: > 30 µM

B4: MtTfuA-R170A (enzyme)
chain: B6 chain with A51D, R167A
EC50 [1]: > 30 µM

B5: MtTfuA-M84A (enzyme)
chain: B6 chain with A51D, M81A
EC50 [1]: 3.2 µM

B7: MtTfuA-F57A (enzyme)
chain: B6 chain with A51D, F54A
EC50 [1]: 3.8 µM

B8: MtTfuA-R206A (enzyme)
chain: B6 chain with A51D, R199A
EC50 [1]: 3.1 µM

B11: MtTfuA-S83A (enzyme)
chain: B6 chain with A51D, S80A
EC50 [1]: 4.1 µM

B15: MtTfuA-K205M (enzyme)
chain: B6 chain with A51D, K198M
EC50 [1]: 1.1 µM

B16: MtTfuA-D203A (enzyme)
chain: B6 chain with A51D, D196A
EC50 [1]: 2.9 µM

B17: MtTfuA-S16A (enzyme)
chain: B6 chain with S13A, A51D
EC50 [1]: 5.4 µM

B18: MtTfuA-R88A (enzyme)
chain: B6 chain with A51D, R85A
EC50 [1]: > 30 µM

B20: MtTfuA-E91D (enzyme)
chain: B6 chain with A51D, E88D
EC50 [1]: 2.1 µM

Source: article PMC8084935 (Nature chemical biology, 2021)
